Test results: patent US20230121197A1, “ANTIBODIES SPECIFICALLY BINDING THE CARBOXYMETHYLATED CATALYTIC SUBUNIT OF PROTEIN PHOSPHATASE 2A” (Medizinische Universität Wien, priority 2020, published 2023)

Key:
[1] = target: PP2Ac C-terminal peptide pT304-meL309, ac-HVTRRpTPDYFL-CH3 (human); test: ELISA, peptide dilution series, supernatant 1:50
[2] = target: T1, HA-PP6c (Mus musculus, UniProt Q9CQR6); test: Immunoblotting of anti-HA immunoprecipitates of NIH3T3 cells, PP6c; assay type: binding
T1 construct: expressed in transfected cells; host or cells: NIH3T3 mouse fibroblasts, retroviral pBabe hygro HA-PP6c
T1 sequence (Q9CQR6 1-305): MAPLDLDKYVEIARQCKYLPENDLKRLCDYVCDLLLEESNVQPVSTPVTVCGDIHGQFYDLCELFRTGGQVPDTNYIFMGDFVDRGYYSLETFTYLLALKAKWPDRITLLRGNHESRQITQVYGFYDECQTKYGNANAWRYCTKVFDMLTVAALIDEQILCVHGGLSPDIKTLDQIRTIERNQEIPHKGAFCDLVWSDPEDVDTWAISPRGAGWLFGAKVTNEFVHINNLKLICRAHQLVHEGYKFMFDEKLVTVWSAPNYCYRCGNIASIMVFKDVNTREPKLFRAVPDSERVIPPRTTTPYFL
From the text: The catalytic subunits of protein phosphatase 4 (PP4c) and 6 (PP6c) are closely related to PP2Ac with approximately 50% sequence identity. PP2Ac, PP4c and PP6c share the C-terminal DYFL or YFL motif, respectively (FIG. 8A). Therefore, a potential cross-reactivity of 7C10-C5 with α-carboxymethylated PP4c and/or PP6c was examined and compared to another anti-carboxymethyl-PP2Ac antibody 2A10. 2A10 is a carboxymethyl-PP2Ac specific antibody that has been raised against a larger C-terminal PP2Ac peptide (amino acids 302-309, carboxymethylated Leu^309) and that has been shown before to cross-react with α-carboxymethylated PP4c (Lee (2014), Biochem Biophys Res Commun 452, 42-47). HA tagged human PP2Ac a, mouse HA PP4c or mouse HA PP6c from NIH3T3 mouse fibroblasts stably expressing these HA-tagged proteins were immunoprecipitated. The precipitated proteins were then analyzed by immunoblotting with anti-carboxymethyl-PP2Ac antibodies 7C10-C5 or 2A10.
Specifically, 500 μl corresponding to 1 mg of whole cell protein lysates of NIH3T3 mouse fibroblasts were incubated with anti-hemagglutinin (HA) antibody (clone 12CA5) crosslinked to BSA-coated protein A-Sepharose beads (GE-Healthcare) to immunoprecipitate HA-epitope tagged PP2Ac, PP4c or PP6c for 1 h. […]

[3] = target: T2, non-carboxymethylated PP2Ac (ac-[…]-OH) (Homo sapiens, UniProt P67775); test: Surface plasmon resonance (Biacore T200), non-carboxymethylated PP2Ac peptide; assay type: binding; conditions: SPR
T2 construct: The following 11-mer peptides corresponding to the carboxymethylated or non-methylated carboxy-terminus of PP2A and PP4 catalytic subunits were used as antigens
Procedure: The differential affinity of anti-carboxymethylated PP2Ac antibodies, 7C10-C5 and 2A10, to carboxymethylated PP2A catalytic subunit versus noncarboxymethylated PP2A catalytic subunit was determined by surface plasmon resonance (SPR) on a Biacore T200 (GE Healthcare) at the Core Facility Biomolecular & Cellular Analysis (University of Natural Resources and Life Sciences Vienna BOKU). The affinity of 7C10-C5 for carboxymethylated and noncarboxymethylated catalytic subunit of PP4 (PP4c), a PP2A-related phosphatase, was also determined. […] The KD of the binding of 7C10-C5 (or 2A10) to non-carboxymethylated PP2Ac or PP4c could not be determined because at the highest analyte sample concentration (5000 nM) only very weak binding signals were detected indicating KD values of at least >5000 nM or higher. […]
SPR experiments were performed with the BiacoreT200 instrument (Cytiva). […] The sensorgrams obtained were analyzed with BiacoreT200 Evaluation Software (version 3.1). […]

B1: 7C10-C5 monoclonal antibody (antibody, V domains shown)
VH: DVQLQESGPGLVKPSQSLSLTCSVTGYSITSGYYWNWIRQFPGNKLEWMGYISYDGSNNYNPSLKNRISITRDTSKNQFFLKLNSVTTEDTATYYCAGRFAYWGQGTLVTVSA
VL: DVLMTQTPLSLPVSLGDQASISCRSSQSIVHSNGNTYLEWYLQKPGQSPKLLIYKVSNRFSGVPDRFSGSGSGTDFTLKINRVEAEDLGVYYCFQGSHVPWTFGGGTKLEIK
notes: Used as hybridoma culture supernatant (ELISA, Western blot, IHC) or at 50 µg/mL (SPR); also called 7C10 X63; clone 7C10-C5
fold detection difference against the carboxymethylated peptide (meL309) at lower peptide concentrations [1]: 4 fold

B2: 7C10-C5: α-carboxymethylation specific mouse monoclonal IgG1 antibody from single clone hybridoma 7C10-C5 (DSM ACC3350) (antibody)
heavy: MYRMQLLSCIALSLALVTNSDVQLQESGPGLVKPSQSLSLTCSVTGYSITSGYYWNWIRQFPGNKLEWMGYISYDGSNNYNPSLKNRISITRDTSKNQFFLKLNSVTTEDTATYYCAGRFAYWGQGTLVTVSAAKTTAPSVYPLAPVCGDTTGSSVTLGCLVKGYFPEPVTLTWNSGSLSSGVHTFPAVLQSDLYTLSSSVTVTSSTWPSQSITCNVAHPASSTKVDKKIEPRGPTIKPCPPCKCPAPNLLGGPSVFIFPPKIKDVLMISLSPIVTCVVVDVSEDDPDVQISWFVNNVEVHTAQTQTHREDYNSTLRVVSALPIQHQDWMSGKEFKCKVNNKDLPAPIERTISKPKGSVRAPQVYVLPPPEEEMTKKQVTLTCMVTDFMPEDIYVEWTNNGKTELNYKNTEPVLDSDGSYFMYSKLRVEKKNWVERNSYSCSVVHEGLHNHHTTKSFSRTPGK
light: MDMRVPAQLLGLLLLWLSGARCDVLMTQTPLSLPVSLGDQASISCRSSQSIVHSNGNTYLEWYLQKPGQSPKLLIYKVSNRFSGVPDRFSGSGSGTDFTLKINRVEAEDLGVYYCFQGSHVPWTFGGGTKLEIKADAAPTVSIFPPSSEQLTSGGASVVCFLNNFYPKDINVKWKIDGSERQNGVLNSWTDQDSKDSTYSMSSTLTLTKDEYERHNSYTCEATHKTSTSPIVKSFNRNEC
modifications: Amino acid sequence of the recombinant 7C10-C5 heavy chain; Amino acid sequence of the recombinant 7C10-C5 light chain
detection of PP6c ([2]; Western blot of HA immunoprecipitates): did not detect
binding to carboxymethylated PP2Ac stronger than to carboxymethylated PP6c ([2]; Western blot, suggested since no discernable signal): 100-fold or even 500-fold
binding to carboxymethylated PP2Ac stronger than to non-carboxymethylated PP2Ac [3]: at least 400 fold
binding to non-carboxymethylated PP2Ac [3]: does not bind to non-carboxymethylated PP2Ac to a measureable extent
